Where a chain is given by its changes, count along the chain named.
T1: human OX40 on the cell surface (activated human T cells; HeLa_hOx40_NFkB_Luc1 reporter cells) (human, UniProt P43489 29-277)
T1 construct: also called hu OX40; CD134
T1 sequence: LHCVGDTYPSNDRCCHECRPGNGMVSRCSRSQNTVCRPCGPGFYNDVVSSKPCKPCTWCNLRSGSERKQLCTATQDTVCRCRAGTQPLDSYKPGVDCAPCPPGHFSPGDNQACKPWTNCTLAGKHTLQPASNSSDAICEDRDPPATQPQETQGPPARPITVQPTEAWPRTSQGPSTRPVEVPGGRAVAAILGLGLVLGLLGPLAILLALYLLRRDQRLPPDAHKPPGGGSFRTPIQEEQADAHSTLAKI

B1: P1AE8875 OX40(MOXR0916) x FAP(1G1a) 3+1 (bispecific antibody, human IgG1, kappa, L234A L235A)
heavy 1: not shown
heavy 2: EVQLVQSGAEVKKPGASVKVSCKASGYTFTDSYMSWVRQAPGQGLEWIGDMYPDNGDSSYNQKFRERVTITRDTSTSTAYLELSSLRSEDTAVYYCVLAPRWYFSVWGQGTLVTVSSASTKGPSVFPLAPSSKSTSGGTAALGCLVEDYFPEPVTVSWNSGALTSGVHTFPAVLQSSGLYSLSSVVTVPSSSLGTQTYICNVNHKPSNTKVDEKVEPKSCGGGGSGGSGGEVQLVQSGAEVKKPGASVKVSCKASGYTFTDSYMSWVRQAPGQGLEWIGDMYPDNGDSSYNQKFRERVTITRDTSTSTAYLELSSLRSEDTAVYYCVLAPRWYFSVWGQGTLVTVSSASTKGPSVFPLAPSSKSTSGGTAALGCLVEDYFPEPVTVSWNSGALTSGVHTFPAVLQSSGLYSLSSVVTVPSSSLGTQTYICNVNHKPSNTKVDEKVEPKSCDKTHTCPPCPAPEAAGGPSVFLFPPKPKDTLMISRTPEVTCVVVDVSHEDPEVKFNWYVDGVEVHNAKTKPREEQYNSTYRVVSVLTVLHQDWLNGKEYKCKVSNKALGAPIEKTISKAKGQPREPQVCTLPPSRDELTKNQVSLSCAVKGFYPSDIAVEWESNGQPENNYKTTPPVLDSDGSFFLVSKLTVDKSRWQQGNVFSCSVMHEALHNHYTQKSLSLSP
light 1: not shown
light 2: EIVLTQSPATLSLSPGERATLSCRASESVDNYGLSFINWFQQKPGQAPRLLIYGTSNRGSGIPARFSGSGSGTDFTLTISSLEPEDFAVYFCQQSNEVPYTFGGGTKVEIKSSASTKGPSVFPLAPSSKSTSGGTAALGCLVKDYFPEPVTVSWNSGALTSGVHTFPAVLQSSGLYSLSSVVTVPSSSLGTQTYICNVNHKPSNTKVDKKVEPKSC
notes: (2+1)', but its chains are those of a MOXR0916 3+1 molecule ending in EPKSC; Human IgG1 Fc, knob-into-hole, PGLALA; also called MOX0916 3+1; MOXR0916 3+1
B2: P1AE8874 OX40 (CLC563) x FAP (1G1a) (3+1) C-terminal crossfab fusion (bispecific antibody, human IgG1, kappa, L234A L235A)
heavy 1: not shown
heavy 2: not shown
light 1: not shown
light 2: B1 light 2
notes: 3+1 format; Human IgG1 Fc, knob-into-hole, PGLALA; VL-CH1 chain ends in EPKSC; also called CLC-563 3+1
B3: P1AE8872 OX40 (MOXR0916) x FAP (1G1a) (2+1) C-terminal crossfab fusion (bispecific antibody, human IgG1, kappa, L234A L235A)
heavy 1: not shown
heavy 2: EVQLVQSGAEVKKPGASVKVSCKASGYTFTDSYMSWVRQAPGQGLEWIGDMYPDNGDSSYNQKFRERVTITRDTSTSTAYLELSSLRSEDTAVYYCVLAPRWYFSVWGQGTLVTVSSASTKGPSVFPLAPSSKSTSGGTAALGCLVEDYFPEPVTVSWNSGALTSGVHTFPAVLQSSGLYSLSSVVTVPSSSLGTQTYICNVNHKPSNTKVDEKVEPKSCDKTHTCPPCPAPEAAGGPSVFLFPPKPKDTLMISRTPEVTCVVVDVSHEDPEVKFNWYVDGVEVHNAKTKPREEQYNSTYRVVSVLTVLHQDWLNGKEYKCKVSNKALGAPIEKTISKAKGQPREPQVCTLPPSRDELTKNQVSLSCAVKGFYPSDIAVEWESNGQPENNYKTTPPVLDSDGSFFLVSKLTVDKSRWQQGNVFSCSVMHEALHNHYTQKSLSLSP
light 1: not shown
light 2: B1 light 2
notes: 2+1 format; Human IgG1 Fc, knob-into-hole, PGLALA; VL-CH1 chain ends in EPKSC; also called MOX0916 2+1; MOXR0916 2+1
B4: P1AE8871 OX40 (CLC563) x FAP (1G1a) (2+1) C-terminal crossfab fusion (bispecific antibody, human IgG1, kappa, L234A L235A)
heavy 1: not shown
heavy 2: not shown
light 1: not shown
light 2: B1 light 2
notes: 2+1 format; Human IgG1 Fc, knob-into-hole, PGLALA; VL-CH1 chain ends in EPKSC; also called CLC-563 2+1
B5: P1AD3690 untargeted tetravalent OX40 (49B4) antigen binding molecule (4+0) (antibody, V domains shown)
VH: QVQLVQSGAEVKKPGSSVKVSCKASGGTFSSYAISWVRQAPGQGLEWMGGIIPIFGTANYAQKFQGRVTITADKSTSTAYMELSSLRSEDTAVYYCAREYYRGPYDYWGQGTTVTVSS
VL: DIQMTQSPSTLSASVGDRVTITCRASQSISSWLAWYQQKPGKAPKLLIYDASSLESGVPSRFSGSGSGTEFTLTISSLQPDDFATYYCQQYSSQPYTFGQGTKVEIK
B6: P1AE1116 GITR(852.2) x FAP (4B9) (2+1) C-terminal crossfab fusion (bispecific antibody, human IgG1, kappa, L234A L235A)
heavy 1: not shown
heavy 2: EVQLVESGGGLVQPGGSLRLSCAASGFTFSSYTMKWVRQTPGKGLEWVSVISADGGTTDHAASVKGRFTVSRDNSKNMLYLQMNSLRAEDTAIYYCAKDRANDWITGASFDYWGQGALVTVSSASTKGPSVFPLAPSSKSTSGGTAALGCLVEDYFPEPVTVSWNSGALTSGVHTFPAVLQSSGLYSLSSVVTVPSSSLGTQTYICNVNHKPSNTKVDEKVEPKSCDKTHTCPPCPAPEAAGGPSVFLFPPKPKDTLMISRTPEVTCVVVDVSHEDPEVKFNWYVDGVEVHNAKTKPREEQYNSTYRVVSVLTVLHQDWLNGKEYKCKVSNKALGAPIEKTISKAKGQPREPQVCTLPPSRDELTKNQVSLSCAVKGFYPSDIAVEWESNGQPENNYKTTPPVLDSDGSFFLVSKLTVDKSRWQQGNVFSCSVMHEALHNHYTQKSLSLSP
light 1: DIQMTQSPSSLSASVGDRVTITCRASQSINSYLNWYQQKPGNAPKLLIYAASSLQSGVPSRFSGSGSGTEFTLTISSLQPEDLATYYCQQARSFPLTFGGGTKVEIKRTVAAPSVFIFPPSDRKLKSGTASVVCLLNNFYPREAKVQWKVDNALQSGNSQESVTEQDSKDSTYSLSSTLTLSKADYEKHKVYACEVTHQGLSSPVTKSFNRGEC
light 2: EIVLTQSPGTLSLSPGERATLSCRASQSVTSSYLAWYQQKPGQAPRLLINVGSRRATGIPDRFSGSGSGTDFTLTISRLEPEDFAVYYCQQGIMLPPTFGQGTKVEIKSSASTKGPSVFPLAPSSKSTSGGTAALGCLVKDYFPEPVTVSWNSGALTSGVHTFPAVLQSSGLYSLSSVVTVPSSSLGTQTYICNVNHKPSNTKVDKKVEPKSC
notes: 2+1 format; Human IgG1 Fc, knob-into-hole, PGLALA; VL-CH1 chain ends in EPKSC
B7: P1AG1036 GITR(852.2) x FAP (4B9_EPKSCS) (2+1) C-terminal crossfab fusion (bispecific antibody, human IgG1, kappa, L234A L235A)
heavy 1: not shown
heavy 2: B6 heavy 2
light 1: B6 light 1
light 2: EIVLTQSPGTLSLSPGERATLSCRASQSVTSSYLAWYQQKPGQAPRLLINVGSRRATGIPDRFSGSGSGTDFTLTISRLEPEDFAVYYCQQGIMLPPTFGQGTKVEIKSSASTKGPSVFPLAPSSKSTSGGTAALGCLVKDYFPEPVTVSWNSGALTSGVHTFPAVLQSSGLYSLSSVVTVPSSSLGTQTYICNVNHKPSNTKVDKKVEPKSCS
notes: 2+1 format; Human IgG1 Fc, knob-into-hole, PGLALA; VL-CH1 chain ends in EPKSCS
B8: P1AG1039 GITR(852.2) x FAP (4B9_EPKSCG) (2+1) C-terminal crossfab fusion (bispecific antibody, human IgG1, kappa, L234A L235A)
heavy 1: not shown
heavy 2: B6 heavy 2
light 1: B6 light 1
light 2: B7 light 2 with S214G
notes: 2+1 format; Human IgG1 Fc, knob-into-hole, PGLALA; VL-CH1 chain ends in EPKSCG

target: T2, human fibroblast activation protein (huFAP) on NIH/3T3-huFAP clone 19 cells (human, UniProt Q12884 1-760); assay: flow cytometry, NIH/3T3-huFAP clone 19 cells
T2 construct: Mouse NIH/3T3 fibroblasts transfected with vector pETR4921 to express huFAP; also called cell surface FAP
Method: In another experiment, a mixture of 2 × 10⁵ NIH/3T3-huFAP clone 19 cells and HeLa cells in FACS buffer were added to each well of a round-bottom 96-well plates (TPP, Cat. No. 92097) and the binding assay was performed. Cells were first stained 20 min with LIVE/DEAD™ Fixable Aqua Dead Cell Stain (Molecular probes, Cat.No. L34957) in DPBS, followed after one washing step with 200 µL 4° C. […] Afterwards the cells were washed once with 200 µL FACS buffer at 4° C. and resuspended by a short vortex. Cells were further stained with 50 µL/well of 4° C. cold secondary antibody solution containing Phycoerythrin (PE)-conjugated AffiniPure anti-human IgG Fcy-fragment-specific goat IgG F(ab′)2 fragment (Jackson ImmunoResearch, Cat. No. 109-116-098) and incubated for 30 minutes at 4° C. in the dark. Samples were finally resuspended in 100 µL/well FACS-buffer and acquired the same day using with BD Fortessa running FACS Diva software.

Row | EC50 [nM] | Binder
1 | 2.7 | B1
2 | 2.52 | B2
3 | 1.78 | B3
4 | 2.51 | B4

target: T1, human OX40 on the cell surface …; assay: flow cytometry, activated human PBMC gated on CD4+ T cells

Row | EC50 [nM] | Binder
5 | 0.69 | B1
6 | 3.62 | B2
7 | 0.9 | B3
8 | 3.19 | B4

target: T3, FcRn (biotinylated, coupled to streptavidin-sepharose); assay: FcRn affinity chromatography; retention compared to protein standards with known affinities
T3 construct: also called neonatal Fc receptor
Method: For coupling, the prepared receptor was added to streptavidin-sepharose (GE Healthcare). The resulting FcRn-sepharose matrix was packed in a column housing. The column was equilibrated with 20 mM 2-(N-morpholine)-ethanesulfonic acid (MES) and 140 mM NaCl, pH 5.5 (eluent A) at a 0.5 ml/min flow rate. 30 µg of antibody samples were diluted at a volume ratio of 1: 1 with eluent A and applied to the FcRn column. The column was washed with 5 column volumes of eluent A followed by elution with a linear gradient from 20 to 100% 20 mM Tris/HCl and 140 mM NaCl, pH 8.8 (eluent B) in 35 column volumes. The analysis was performed with a column oven at 25° C. The elution profile was monitored by continuous measurement of the absorbance at 280 nm. Retention times were compared to protein standards with known affinities.

Row | FcRn affinity | Binder
9 | -0.22 | B1
10 | -0.14 | B2
11 | 0.15 | B3

target: T1, human OX40 on the cell surface …; assay: cell-based or functional assay

Row | EC50 of NFκB activation (luciferase), HeLa_hOx40_NFkB_Luc1, w/ hu FAP [nM] | EC50 of NFκB activation (luciferase), HeLa_hOx40_NFkB_Luc1, w/o [nM] | Binder
12 | 0.18 | 0.23 | B5
13 | 0.31 | 3.94 | B1
14 | 0.24 | 0.79 | B2
15 | 0.19 |  | B3
16 | 0.21 |  | B4

target: human FAP (soluble second analyte, SPR) (human, UniProt Q12884 26-760); assay: SPR (Biacore T200), biotinylated human GITR Fc(kih) on SA chip, bispecific at 200 nM, then human FAP at 500 nM
Method: The capacity of binding simultaneously human GITR Fc(kih) and human FAP can be assessed by surface plasmon resonance (SPR). All SPR experiments are performed on a Biacore T200 at 25° C. with HBS-EP as running buffer (0.01 M HEPES pH 7.4, 0.15 M NaCl, 3 mM EDTA, 0.005% Surfactant P20, Biacore, Freiburg/Germany). […] Immobilization levels up to 1000 resonance units (RU) are used. The bispecific antibodies targeting GITR and FAP are passed at a concentration range of 200 nM with a flow of 30 µL/minute through the flow cells over 90 seconds and dissociation was set to zero sec. Human FAP is injected as second analyte with a flow of 30 µL/minute through the flow cells over 90 seconds at a concentration of 500 nM. The dissociation is monitored for 120 sec. Bulk refractive index differences are corrected for by subtracting the response obtained in a reference flow cell, where no protein is immobilized.

Row | binding result | Binder
17 | binds | B6
18 | binds | B7
19 | binds | B8

target: T1, human OX40 on the cell surface …; assay: cell-based or functional assay; remark: another data set of the same source

Row | CD25 upregulation on CD4+ T cells, AUC compared to reference compound [%] | EC50 of CD25 upregulation on CD4+ T cells, suboptimal TCR stimulation of human PBMC with NIH/3T3-huFAP cells [nM] | Binder
20 | 13 |  | B5
21 | 100 | 0.02 | B1
22 | 100 | 0.04 | B2
23 | 106 | 0.01 | B3
24 | 99 | 0.06 | B4

Source: patent US20230227584A1 (published 2023)
